According to patent US12522635B2, “Amyloid peptide variants” (Loyola Marymount University, priority 2019, dated 2026):
Where no end group is shown, it is not given here.

How the values were obtained:
human IAPP (hIAPP) = biological target: T1, human IAPP (hIAPP) (Homo sapiens, UniProt P10997); experiment: Thioflavin T binding assay of hIAPP aggregation when mixed with IAPP peptides; format: biochemical; details: for inhibition of hIAPP aggregation (summary statement): peptide mixed with hIAPP, no single assay (thioflavin T and AFM); for inhibition of hIAPP aggregation, thioflavin T binding: hIAPP mixed with peptide, incubated at 37° C. with shaking
T1 construct: This 37 amino acid polypeptide is co-secreted from pancreatic β-islet cells with insulin
T1 sequence (P10997 34-70 limits assumed): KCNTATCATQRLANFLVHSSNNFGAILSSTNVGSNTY
Source text: Any of a number of assays known to the art can be used to evaluate the ability of IAPP peptides to inhibit hIAPP aggregation and/or protect cells from hIAPP toxicity. Thioflavin T (ThT) binding is one such technique for identifying amyloid formation in real time. Human IAPP is known to bind thioflavin T during aggregation and amyloid formation, and upon binding to amyloid fibrils ThT will give a strong fluorescence signal at approximately 482 nm when excited at 450 nm. ThT fluorescence correlates linearly with amyloid concentration in a sample and therefore can be used to determine the amount of aggregation in a sample. This technique can therefore be used for identifying substances with amyloid-inhibiting potential when such substances are mixed with human IAPP under conditions known to result in the formation of aggregates by hIAPP. Determining the extent of aggregation can also be determined using other techniques, such as Atomic Force Microscopy (AFM), which can provide information about particle dimensions, shape, and substructure with nanometer resolution. In the foregoing assays and others that can be used by one of skill in the art, significant inhibition can be determined using a t-test by measuring the difference between hIAPP and hIAPP combined with an IAPP peptide.
To identify IAPP peptides having inhibitory potential against hIAPP aggregation, the peptides shown in FIG. 1 from a number of species (cow, degu, guinea pig, horse, pig, rat, and sheep[…]) were mixed with hIAPP at a 2:1 molar ratio of animal peptide to hIAPP and incubated under conditions known to promote hIAPP aggregation and fibril formation. IAPP alone, or hIAPP mixed with an animal IAPP, was pipetted into a glass tube and the HFIP was removed under speed-vacuum. The resulting peptide sample was dissolved in 20 mM Tris buffer pH 7.4.
37 μM human IAPP was mixed with 75 μM of each indicated animal IAPP. Aggregation was initiated by incubating samples at 37° C. with shaking at 200 rpm for 40 minutes. At indicated time points, a 17 μL aliquot of each sample was mixed with 663 μL of 50.0 μM thioflavin T in 20 mM Tris buffer (pH 7.4). Thioflavin T fluorescence emission was then recorded at 488 nm using a Hitachi F-7000 fluorescence spectrophotometer.
After 40 minutes, these samples were monitored for their ability to bind thioflavin T (see FIG. 2) and their ability to form fibrils as identified with atomic force microscopy.
Human IAPP (37 μM) was mixed with each of the indicated Weddell seal variants (at 75 μM) and incubated for 30 minutes at 37° C. with shaking at 200 rpm. The Weddell seal IAPP peptides were likewise subjected to atomic force microscopy as described in Example 2.
Human IAPP was mixed with each of the indicated raccoon variants and incubated at 37° C. with shaking.
Human IAPP was mixed with each of the indicated chicken variants and incubated at 37° C. with shaking. […] However, it was able to protect cells in MTT assays, so it is believed to inhibit formation of toxic oligomers while having a lesser effect on inhibiting the formation of fibers (which are less toxic and less able to bind ThT).
Human IAPP was mixed with each of the indicated chicken variants and incubated at 37° C. with shaking.

RIN-m cells = experiment: MTT viability assay, peptide alone or mixed with hIAPP; format: cell-based; details: hIAPP mixed with peptide 1:1, MTT assay
Source text: Cytoprotection can likewise be measured by a number of assays known to the art. One such assay is the MTT assay, which is a colorimetric assay for assessing cell metabolic activity. NAD(P)H-dependent cellular oxidoreductase enzymes in the cytosolic compartment of a cell reduces the tetrazolium dye MTT 3-(4,5-dimethylthiazol-2-yl)-2,5-diphenyltetrazolium bromide to an insoluble form, formazan, which has a purple color. The reduction of MTT (and other tetrazolium dyes) depends on the cellular metabolic activity, so a loss of color in the course of performing an MTT assay indicates low metabolic activity, and is thus an indicator of cell damage and death.
To test cell viability, a MTT colorimetric assay measuring the conversion of yellow tetrazolium salt into purple formazan crystal catalyzed by a mitochondrial reductase was used. Cell viability studies were performed using RIN-m cells (ATCC, CRL-2057). An equal number of RIN-m cells were plated in triplicate and incubated overnight in 96-well plates. The next day, fresh RPMI-1640 with phenol red supplemented with 10% FBS was added to cells. Hexafluoroisopropanol (HFIP) was removed from each individual human and animal IAPP using a centrivap concentrator (LabOnco). All IAPP peptide samples were re-suspended in RPMI-1640 with 10% FBS. To ensure even re-suspension, each resulting IAPP-containing vial was scraped with a pipette tip six times and vortexed (Vortex Genie Mixer) for 15 seconds. The whole process, from drying each IAPP peptide to adding each IAPP peptide to the cells was uniform to ensure that each sample was incubated for an equal amount of time with each IAPP peptide. IAPP peptides were added to cells and incubated for 46 hours at 37° C. Post-incubation, the media in each well was replaced by fresh DMEM/F-12 without phenol red. MTT (3-(4,5-dimethyl-2-thiazolyl)-2,5-diphenyl-tetrazolium bromide) was added into each well and incubated at 37° C. for 2 hours. Formazan crystals, formed on the bottom of the wells, were re-suspended in solubilization buffer (20% SDS and 50% dimethylformamide). The absorbance in each well was taken at 570 nm using a Multiskan FC Microplate Photometer (Thermos Fisher Scientific). Media were obtained from ATCC. All incubations took place in a water jacketed incubator in 5% carbon dioxide at 37° C. (Shell Lab).
The MTT viability assay was used to measure cell viability of RIN-m cells upon addition of hIAPP alone, the addition of each animal IAPP peptide alone, and hIAPP mixed with each animal IAPP peptide (results shown in FIG. 5). RIN-m cells alone were used as a control and set to 100% cell viability. […] Addition of raccoon IAPP to hIAPP increased the cell viability from 55% to an average of 72% (p=0.005705). Addition of chicken IAPP variant to hIAPP increased cell viability to an average of 76% (p=0.013556).

| Substance | inhibition of hIAPP aggregation (summary statement) (human IAPP (hIAPP)) | rescue / protection of cells from hIAPP toxicity (words) (RIN-m cells) | inhibition of hIAPP aggregation, thioflavin T binding (human IAPP (hIAPP)) |
| --- | --- | --- | --- |
| SEQ ID NO:21: raccoon IAPP peptide with amino acids removed from the N-terminal end (FLLRSSNNLGAILSPTNVGSNTY; Procyon lotor truncation) | failed to inhibit aggregation of hIAPP or reduce its cytotoxicity | failed to inhibit aggregation of hIAPP or reduce its cytotoxicity |  |
| KCNTATCVTQRLADFLVRSSSNIGAILSPTNVGSNTY (Gallus gallus mutation) [Ch_Y26L] |  | rescued cells from hIAPP-induced cytotoxicity | inhibited hIAPP aggregation |
| KCNTATCVTQRLANFLLRSSNNIGAILSPTNVGSNTY (Procyon lotor mutation) [Rac_L22I] |  |  | inhibited hIAPP aggregation |
| KCNTATCATQRLANFLVRSSNNFGAILSPTNVGSNTY (KTATCATQRLANFLVHSSNNLGAILSPTNVGSNTY; Leptonychotes weddellii mutation) [WS_RP] |  | rescued cells from hIAPP toxicity |  |
| SEQ ID NO:24: raccoon IAPP peptide with amino acids removed from the middle (VTQRLANFLLRSSNNLGAILSPT; Procyon lotor truncation) | failed to inhibit aggregation of hIAPP or reduce its cytotoxicity | failed to inhibit aggregation of hIAPP or reduce its cytotoxicity |  |
| SEQ ID NO:22: raccoon IAPP peptide with amino acids removed from the middle (FLLRSSNNLGAILSPTN; Procyon lotor truncation) | failed to inhibit aggregation of hIAPP or reduce its cytotoxicity | failed to inhibit aggregation of hIAPP or reduce its cytotoxicity |  |
| KCNTATCVTQRLANFLVRSSNNLGAILSPTNVGSNTY (Procyon lotor mutation) [Rac_L16V] |  |  | inhibited hIAPP aggregation |
| KCNTATCATQRLANFLLRSSNNLGAILSPTNVGSNTY (Procyon lotor mutation) [Rac_V8A] |  |  | inhibited hIAPP aggregation |
| KCNTATCVTQRLANFLLRSSNNLGAILSPT (ends and bridges not checked; cysteine pairing not given here) [R1-30] |  | rescued cells from hIAPP-induced cytotoxicity | inhibited hIAPP aggregation |
| SEQ ID NO:23: raccoon IAPP peptide with amino acids removed from the N-terminal end (ATQRLANFLLRSSNNLGAILSPTNVGSNTY; Procyon lotor truncation) | failed to inhibit aggregation of hIAPP or reduce its cytotoxicity | failed to inhibit aggregation of hIAPP or reduce its cytotoxicity |  |
| KCNTATCVTQRLADFLLRSSNNLGAILSPTNVGSNTY (Procyon lotor mutation) [Rac_N13D] |  |  | inhibited hIAPP aggregation |
| SEQ ID NO:25: raccoon IAPP peptide with amino acids removed from the middle (VTQRLANFLLRSSNNL; Procyon lotor truncation) | failed to inhibit aggregation of hIAPP or reduce its cytotoxicity | failed to inhibit aggregation of hIAPP or reduce its cytotoxicity |  |
| KCNTATCVTQRLADFLLRSSSNIGAIYSPTNVGSNTY (Gallus gallus mutation) [Ch_V16L] |  | rescued cells from hIAPP-induced cytotoxicity | inhibited hIAPP aggregation |
